Non-standard residues stand in square brackets, D forms with d. *: point of attachment. Amidino = amidino group, N=C(N)*; tBuAla = CC(C)(C)C[C@H](N)C(=O)O; Cha = N[C@@H](CC1CCCCC1)C(=O)O; Aib = CC(C)(N)C(=O)O
B1: Ac-[Asn23, D-Pro24, Cha27,28,36, Aib31]-PYY(23-36) (peptide)
peptide: Ac-N[dP]RH[Cha][Cha]NL[Aib]TRQR[Cha]-NH2
SMILES: CC(=O)N[C@@H](CC(N)=O)C(=O)N1CCC[C@@H]1C(=O)N[C@@H](CCCNC(=N)N)C(=O)N[C@@H](Cc1c[nH]cn1)C(=O)N[C@@H](CC1CCCCC1)C(=O)N[C@@H](CC1CCCCC1)C(=O)N[C@@H](CC(N)=O)C(=O)N[C@@H](CC(C)C)C(=O)NC(C)(C)C(=O)N[C@H](C(=O)N[C@@H](CCCNC(=N)N)C(=O)N[C@@H](CCC(N)=O)C(=O)N[C@@H](CCCNC(=N)N)C(=O)N[C@@H](CC1CCCCC1)C(N)=O)[C@@H](C)O
notes: also called compound No. 115
B2: Ac-[D-Pro24, Cha27,28,36, Thr30, Aib31]-PYY(23-36) (peptide)
peptide: Ac-S[dP]RH[Cha][Cha]NT[Aib]TRQR[Cha]-NH2
SMILES: CC(=O)N[C@@H](CO)C(=O)N1CCC[C@@H]1C(=O)N[C@@H](CCCNC(=N)N)C(=O)N[C@@H](Cc1c[nH]cn1)C(=O)N[C@@H](CC1CCCCC1)C(=O)N[C@@H](CC1CCCCC1)C(=O)N[C@@H](CC(N)=O)C(=O)N[C@H](C(=O)NC(C)(C)C(=O)N[C@H](C(=O)N[C@@H](CCCNC(=N)N)C(=O)N[C@@H](CCC(N)=O)C(=O)N[C@@H](CCCNC(=N)N)C(=O)N[C@@H](CC1CCCCC1)C(N)=O)[C@@H](C)O)[C@@H](C)O
notes: also called compound No. 132
B3: Ac-[D-Pro24, Cha27,36, Aib28, Lys30, Aib31]-PYY(23-36) (peptide)
peptide: Ac-S[dP]RH[Cha][Aib]NK[Aib]TRQR[Cha]-NH2
SMILES: CC(=O)N[C@@H](CO)C(=O)N1CCC[C@@H]1C(=O)N[C@@H](CCCNC(=N)N)C(=O)N[C@@H](Cc1c[nH]cn1)C(=O)N[C@@H](CC1CCCCC1)C(=O)NC(C)(C)C(=O)N[C@@H](CC(N)=O)C(=O)N[C@@H](CCCCN)C(=O)NC(C)(C)C(=O)N[C@H](C(=O)N[C@@H](CCCNC(=N)N)C(=O)N[C@@H](CCC(N)=O)C(=O)N[C@@H](CCCNC(=N)N)C(=O)N[C@@H](CC1CCCCC1)C(N)=O)[C@@H](C)O
notes: also called compound No. 135
B4: Ac-[D-Pro24, Cha27,36, Leu(Me)28, Lys30, Aib31]-PYY(23-36) (peptide)
peptide: Ac-S[dP]RH[Cha][tBuAla]NK[Aib]TRQR[Cha]-NH2
SMILES: CC(=O)N[C@@H](CO)C(=O)N1CCC[C@@H]1C(=O)N[C@@H](CCCNC(=N)N)C(=O)N[C@@H](Cc1c[nH]cn1)C(=O)N[C@@H](CC1CCCCC1)C(=O)N[C@@H](CC(C)(C)C)C(=O)N[C@@H](CC(N)=O)C(=O)N[C@@H](CCCCN)C(=O)NC(C)(C)C(=O)N[C@H](C(=O)N[C@@H](CCCNC(=N)N)C(=O)N[C@@H](CCC(N)=O)C(=O)N[C@@H](CCCNC(=N)N)C(=O)N[C@@H](CC1CCCCC1)C(N)=O)[C@@H](C)O
notes: also called compound No. 136
B5: Ac-[D-Pro24, Glu26, Cha27,28,36, Aib31]-PYY(23-36) (peptide)
peptide: Ac-S[dP]RE[Cha][Cha]NL[Aib]TRQR[Cha]-NH2
SMILES: CC(=O)N[C@@H](CO)C(=O)N1CCC[C@@H]1C(=O)N[C@@H](CCCNC(=N)N)C(=O)N[C@@H](CCC(=O)O)C(=O)N[C@@H](CC1CCCCC1)C(=O)N[C@@H](CC1CCCCC1)C(=O)N[C@@H](CC(N)=O)C(=O)N[C@@H](CC(C)C)C(=O)NC(C)(C)C(=O)N[C@H](C(=O)N[C@@H](CCCNC(=N)N)C(=O)N[C@@H](CCC(N)=O)C(=O)N[C@@H](CCCNC(=N)N)C(=O)N[C@@H](CC1CCCCC1)C(N)=O)[C@@H](C)O
notes: also called compound No. 151
B6: Ac-[D-Pro24, Thr26, Cha27,28,36, Aib31]-PYY(23-36) (peptide)
peptide: Ac-S[dP]RT[Cha][Cha]NL[Aib]TRQR[Cha]-NH2
SMILES: CC(=O)N[C@@H](CO)C(=O)N1CCC[C@@H]1C(=O)N[C@@H](CCCNC(=N)N)C(=O)N[C@H](C(=O)N[C@@H](CC1CCCCC1)C(=O)N[C@@H](CC1CCCCC1)C(=O)N[C@@H](CC(N)=O)C(=O)N[C@@H](CC(C)C)C(=O)NC(C)(C)C(=O)N[C@H](C(=O)N[C@@H](CCCNC(=N)N)C(=O)N[C@@H](CCC(N)=O)C(=O)N[C@@H](CCCNC(=N)N)C(=O)N[C@@H](CC1CCCCC1)C(N)=O)[C@@H](C)O)[C@@H](C)O
notes: also called compound No. 147
B7: Ac-[D-Thr23, D-Pro24, Cha27,28,36, Aib31]-PYY(23-36) (peptide)
peptide: Ac-[dT][dP]RH[Cha][Cha]NL[Aib]TRQR[Cha]-NH2
SMILES: CC(=O)N[C@@H](C(=O)N1CCC[C@@H]1C(=O)N[C@@H](CCCNC(=N)N)C(=O)N[C@@H](Cc1c[nH]cn1)C(=O)N[C@@H](CC1CCCCC1)C(=O)N[C@@H](CC1CCCCC1)C(=O)N[C@@H](CC(N)=O)C(=O)N[C@@H](CC(C)C)C(=O)NC(C)(C)C(=O)N[C@H](C(=O)N[C@@H](CCCNC(=N)N)C(=O)N[C@@H](CCC(N)=O)C(=O)N[C@@H](CCCNC(=N)N)C(=O)N[C@@H](CC1CCCCC1)C(N)=O)[C@@H](C)O)[C@H](C)O
notes: also called compound No. 158
B8: Ac-[Glu23, D-Pro24, Cha27,28,36, Lys30, Aib31]-PYY(23-36) (peptide)
peptide: Ac-E[dP]RH[Cha][Cha]NK[Aib]TRQR[Cha]-NH2
SMILES: CC(=O)N[C@@H](CCC(=O)O)C(=O)N1CCC[C@@H]1C(=O)N[C@@H](CCCNC(=N)N)C(=O)N[C@@H](Cc1c[nH]cn1)C(=O)N[C@@H](CC1CCCCC1)C(=O)N[C@@H](CC1CCCCC1)C(=O)N[C@@H](CC(N)=O)C(=O)N[C@@H](CCCCN)C(=O)NC(C)(C)C(=O)N[C@H](C(=O)N[C@@H](CCCNC(=N)N)C(=O)N[C@@H](CCC(N)=O)C(=O)N[C@@H](CCCNC(=N)N)C(=O)N[C@@H](CC1CCCCC1)C(N)=O)[C@@H](C)O
notes: also called compound No. 137
B9: Ac-[Glu23, D-Pro24, Cha27,36, Aib28,31, Lys30]-PYY(23-36) (peptide)
peptide: Ac-E[dP]RH[Cha][Aib]NK[Aib]TRQR[Cha]-NH2
SMILES: CC(=O)N[C@@H](CCC(=O)O)C(=O)N1CCC[C@@H]1C(=O)N[C@@H](CCCNC(=N)N)C(=O)N[C@@H](Cc1c[nH]cn1)C(=O)N[C@@H](CC1CCCCC1)C(=O)NC(C)(C)C(=O)N[C@@H](CC(N)=O)C(=O)N[C@@H](CCCCN)C(=O)NC(C)(C)C(=O)N[C@H](C(=O)N[C@@H](CCCNC(=N)N)C(=O)N[C@@H](CCC(N)=O)C(=O)N[C@@H](CCCNC(=N)N)C(=O)N[C@@H](CC1CCCCC1)C(N)=O)[C@@H](C)O
notes: also called compound No. 171
B10: Ac-[Glu23, D-Pro24, Cha27,36, Leu(Me)28, Lys30, Aib31]-PYY(23-36) (peptide)
peptide: Ac-E[dP]RH[Cha][tBuAla]NK[Aib]TRQR[Cha]-NH2
SMILES: CC(=O)N[C@@H](CCC(=O)O)C(=O)N1CCC[C@@H]1C(=O)N[C@@H](CCCNC(=N)N)C(=O)N[C@@H](Cc1c[nH]cn1)C(=O)N[C@@H](CC1CCCCC1)C(=O)N[C@@H](CC(C)(C)C)C(=O)N[C@@H](CC(N)=O)C(=O)N[C@@H](CCCCN)C(=O)NC(C)(C)C(=O)N[C@H](C(=O)N[C@@H](CCCNC(=N)N)C(=O)N[C@@H](CCC(N)=O)C(=O)N[C@@H](CCCNC(=N)N)C(=O)N[C@@H](CC1CCCCC1)C(N)=O)[C@@H](C)O
notes: also called compound No. 168
B11: Ac-[Gly24, Cha27,28,36, Aib31]-PYY(23-36) (peptide)
peptide: Ac-SGRH[Cha][Cha]NL[Aib]TRQR[Cha]-NH2
SMILES: CC(=O)N[C@@H](CO)C(=O)NCC(=O)N[C@@H](CCCNC(=N)N)C(=O)N[C@@H](Cc1c[nH]cn1)C(=O)N[C@@H](CC1CCCCC1)C(=O)N[C@@H](CC1CCCCC1)C(=O)N[C@@H](CC(N)=O)C(=O)N[C@@H](CC(C)C)C(=O)NC(C)(C)C(=O)N[C@H](C(=O)N[C@@H](CCCNC(=N)N)C(=O)N[C@@H](CCC(N)=O)C(=O)N[C@@H](CCCNC(=N)N)C(=O)N[C@@H](CC1CCCCC1)C(N)=O)[C@@H](C)O
notes: also called compound No. 112
B12: Ac-[Tyr23, D-Pro24, Cha27,28,36, Aib31]-PYY(23-36) (peptide)
peptide: Ac-Y[dP]RH[Cha][Cha]NL[Aib]TRQR[Cha]-NH2
SMILES: CC(=O)N[C@@H](Cc1ccc(O)cc1)C(=O)N1CCC[C@@H]1C(=O)N[C@@H](CCCNC(=N)N)C(=O)N[C@@H](Cc1c[nH]cn1)C(=O)N[C@@H](CC1CCCCC1)C(=O)N[C@@H](CC1CCCCC1)C(=O)N[C@@H](CC(N)=O)C(=O)N[C@@H](CC(C)C)C(=O)NC(C)(C)C(=O)N[C@H](C(=O)N[C@@H](CCCNC(=N)N)C(=O)N[C@@H](CCC(N)=O)C(=O)N[C@@H](CCCNC(=N)N)C(=O)N[C@@H](CC1CCCCC1)C(N)=O)[C@@H](C)O
notes: also called compound No. 162
B13: Amidino-[D-Pro24, Cha27,36, Leu(Me)28, Lys30, Aib31]-PYY(23-36) (peptide)
peptide: Amidino-S[dP]RH[Cha][tBuAla]NK[Aib]TRQR[Cha]-NH2
SMILES: C[C@@H](O)[C@H](NC(=O)C(C)(C)NC(=O)[C@H](CCCCN)NC(=O)[C@H](CC(N)=O)NC(=O)[C@H](CC(C)(C)C)NC(=O)[C@H](CC1CCCCC1)NC(=O)[C@H](Cc1c[nH]cn1)NC(=O)[C@H](CCCNC(=N)N)NC(=O)[C@H]1CCCN1C(=O)[C@H](CO)NC(=N)N)C(=O)N[C@@H](CCCNC(=N)N)C(=O)N[C@@H](CCC(N)=O)C(=O)N[C@@H](CCCNC(=N)N)C(=O)N[C@@H](CC1CCCCC1)C(N)=O
notes: also called compound No. 186

Target: T1, human Y2 receptor (human, UniProt P49146 1-381)
T1 sequence (looked up): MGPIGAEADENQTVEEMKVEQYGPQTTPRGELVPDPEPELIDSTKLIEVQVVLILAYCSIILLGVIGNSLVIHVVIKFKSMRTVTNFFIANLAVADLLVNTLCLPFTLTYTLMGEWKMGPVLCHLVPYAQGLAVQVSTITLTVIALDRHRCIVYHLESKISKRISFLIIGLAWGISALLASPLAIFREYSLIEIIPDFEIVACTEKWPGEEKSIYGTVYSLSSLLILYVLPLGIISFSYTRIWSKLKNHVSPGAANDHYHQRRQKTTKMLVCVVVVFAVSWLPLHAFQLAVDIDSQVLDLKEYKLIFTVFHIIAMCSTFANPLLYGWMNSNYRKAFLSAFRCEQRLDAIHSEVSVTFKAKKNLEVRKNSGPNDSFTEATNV
Assay: cell-based or functional assay

Binder | GBA EC50 Ratio (vs PYY(3-36)), [35S]GTPγS [ratio]
B1 | 1.7
B2 | 3.1
B3 | 0.84
B4 | 0.63
B5 | 9.5
B6 | 2.1
B7 | 2.6
B8 | 1.8
B9 | 1.6
B10 | 1.1
B11 | 3.9
B12 | 2.6
B13 | 0.69

Target: T1, human Y2 receptor
Assay: RBA: [125I]-PYY displacement, hY2R/CHO membranes
Description: After incubation at room temperature for 60 minutes, the mixture was filtered through the cell harvester FilterMate (PerkinElmer) using UniFilter-96 GF/C treated with polyethylenimine (PEI) solution (20 mM Tris, 0.3% PEI, pH 7.4), and the filter was washed 3 times with a filtering buffer (50 mM Tris, 5 mM MgCl₂, 150 mM NaCl, 0.03% NaN₃, 0.05% CHAPS, pH 7.4). Thereafter, UniFilter-96 GF/C was dried in a mechanical drier for 1 hour, 15 μl of the liquid scintillator MicroScint O (PerkinElmer) was added to each well, and a measurement was taken using TopCount (PerkinElmer). The data obtained were analyzed using Prism to calculate the IC₅₀ value.

Binder | IC50 Ratio (vs PYY(3-36)) [ratio]
B1 | 2.4
B2 | 6.1
B3 | 1.9
B4 | 0.57
B5 | 68
B6 | 9.3
B7 | 7.1
B8 | 3.6
B9 | 2.9
B10 | 0.73
B11 | 6.3
B12 | 5.2
B13 | 0.43

Source: patent US20120172293A1 (Takeda / Millennium, published 2012)
